Laboratory results reported in US10351618B2, “UTI fusion proteins” (Takeda Pharmaceutical Company Limited, priority 2014, dated 2019).
Each block holds one molecule with its values, some of them ahead of it.

How the values were obtained:
[1] = Thermal stability by differential scanning calorimetry; format: physicochemical
Description: Assays were performed to measure the thermal and real-time stability. […] Thermal stability was measured by differential scanning calorimetry on a Microcal VP-DSC calorimeter. Samples were prepared at 1 mg/ml and buffered in 0.25 mM Tris pH7.4, 0.13M NaCl and 0.0027M KCl. Samples were heated from 25° C. to 110° C. at a rate of 200° C. per hour. UTI-Fc1 was compared to Application Publication Number CN 103044554 A, SEQ ID's 2 and 6, which comprise an IgG2 or IgG1 Fc domain respectively.

caspase-1 = molecular target: T1, caspase-1 (Homo sapiens, UniProt P29466); assay: Protease inhibition at Reaction Biology Corporation: caspase-1; format: biochemical; conditions: FIG. 7
T1 sequence (P29466 120-404): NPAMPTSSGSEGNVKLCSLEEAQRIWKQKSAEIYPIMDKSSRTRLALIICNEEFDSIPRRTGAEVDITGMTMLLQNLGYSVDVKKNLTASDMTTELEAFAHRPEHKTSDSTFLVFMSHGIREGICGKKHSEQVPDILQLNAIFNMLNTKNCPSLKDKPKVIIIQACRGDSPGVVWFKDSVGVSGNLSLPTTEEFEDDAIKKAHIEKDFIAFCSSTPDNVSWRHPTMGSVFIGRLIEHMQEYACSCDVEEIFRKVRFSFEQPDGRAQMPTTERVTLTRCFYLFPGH
Description: (§1) Measurement of the inhibition of other proteases by UTI-Fc1 was also measured at Reaction Biology Corporation (Malvern, Pa.). […] FIG. 7 lists the inhibitory constants of UTI-Fc1 for a variety of proteases.

[2] = Real-time stability (SEC, A280, PAGE) in TBS pH7.4; format: physicochemical
Description: Real-time stability measurements were performed by incubating SEQ ID NO:1 (UTI-Fc1) or CN 103044554 A, SEQ IDS 2 or 6 at 2-8° C., and 40° C. for 0, 2 and 4 weeks in TBS, pH7.4 buffer. The formation of higher and lower molecular weight species was determined by size exclusion chromatography (SEC) and visualized with polyacrilamide gel electrophoresis (PAGE). The concentration of each UTI-Fc was also monitored by determination of the absorbance of the solution at 280 nm (A280), using extinction coefficients determine by the protein composition. The UTI-Fc molecules produce two, partially overlapping peaks, when analyzed by SEC. The percentage peak area in each UTI-Fc sample measured by SEC is reported in Table 9 at time=0 weeks, 2 weeks, and 4 weeks. Also shown is the percentage change in concentration measured by A280 (% A (mg/ml)) at time=2 weeks and 4 weeks. The initial TO concentration of each sample was UTI-Fc1=33.5 mg/mL, CN 103044554 A SEQ ID 2=8.5 mg/mL, and CN 103044554 A SEQ ID 6=5.6 mg/mL. A variability of 3% is typical for SEC and 15% for individual UV measurements.

cathepsin C = cathepsin C (Homo sapiens, UniProt P53634); assay: Protease inhibition at Reaction Biology Corporation: cathepsin C; format: biochemical; conditions: FIG. 7
Description: as §1

papain = molecular target: T2, papain (Carica papaya, UniProt P00784); assay: Protease inhibition at Reaction Biology Corporation: papain; format: biochemical; conditions: FIG. 7
T2 sequence (P00784 134-345): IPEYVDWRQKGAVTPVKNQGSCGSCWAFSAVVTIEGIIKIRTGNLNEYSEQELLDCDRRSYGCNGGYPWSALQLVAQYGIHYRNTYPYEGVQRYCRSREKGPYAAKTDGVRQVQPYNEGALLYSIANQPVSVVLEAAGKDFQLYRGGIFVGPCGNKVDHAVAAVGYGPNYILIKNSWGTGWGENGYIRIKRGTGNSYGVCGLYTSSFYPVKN
Description: as §1

C5a = assay: LPS induced C5a in C3H mice (complement inhibition in vivo); set-up: species or system C3h/HeJ mice; conditions: 4 hours post LPS dose, p<0.05, FIG. 10
Description: UTI-Fc1 (SEQ ID NO:1) affects on the complement system were measured in vivo. Female, C3h/HeJ mice were purchased from Jackson Laboratories. Animals are dosed according to the experimental design Table 10. Animals were injected i.p. (100 ul/mouse) 15 minutes post dose with LPS at time zero. Animals were euthanized at 2 and 4 hours post LPS injection by CO2 overdose and blood was collected by cardiac puncture. Blood was transferred to serum separator microtubes and allowed to clot at room temperature for 30 minutes. Subsequently, microtubes were centrifuged at 12,000 rpm for 5 minutes and serum was removed and aliquoted to a 96 well plate. Rosmarinic acid was used as a positive control and used as 3 mg/ml in saline. The 96 well plate was frozen at −20° C. Serum samples were analyzed for C5a content by duoset. Statistical significance was determined using Prism graphing software and effects were considering statistically significant if p<0.05.

plasmin = plasmin (Homo sapiens, UniProt P00747); assay: Protease inhibition at Reaction Biology Corporation: plasmin; format: biochemical; conditions: FIG. 7
Description: as §1

chymotrypsin = assay: Protease inhibition at Reaction Biology Corporation: chymotrypsin; format: biochemical; conditions: FIG. 6, FIG. 7
Description: as §1

[3] = rodents and humans (Fries et al 2000); cited from earlier work
Factor Xa = Factor Xa (Homo sapiens, UniProt P00742); conditions: full-length UTI (Morishita et al. 1994); cited from earlier work
plasma kallikrien = plasma kallikrien (Homo sapiens, UniProt P03952); conditions: full-length UTI (Morishita et al. 1994); cited from earlier work
[4] = test system: trypsin-induced IL-6 production in BEAS2B cells; assay: Inhibition of trypsin-induced IL-6 release in BEAS2B cells; format: cell-based, human; conditions: 100 nM trypsin, 8 hours, FIG. 8
Description: UTI-Fc1 inhibition of cytokine release was measure in a cell-based assay. BEAS2B cells were seeded at the density of 20,000 cells/well in 96 well plate and cultured using complete BEGM Bullet Kit (Lonza) in CO2 incubator. After 24 hours, the culture media were replaced with plain DMEM for starvation and cells were cultured overnight. Then cells were incubated with fresh plain DMEM containing 100 nM trypsin with various concentrations of human urine UTI or recombinant UTI-Fc1 proteins. After 8 hours, culture supernatants were collected and IL-6 protein levels were assessed using human IL-6 DuoSet (R&D Systems).

Human pancreatic trypsin = molecular target: T3, Human pancreatic trypsin (Homo sapiens, UniProt P07477); assay: In vitro enzymatic assay for trypsin inhibition; format: biochemical; conditions: human pancreatic trypsin 1.5 nM, 15 min pre-incubation, FIG. 5
T3 construct: purchased Athens Research & Technology, Inc
Description: Solutions of UTI-Fc1 at various concentrations 200 nM final concentration) are prepared in 50 mM HEPES, 150 mM NaCl, 20 mM CaC12 and 0.01% Brij L23, pH 7.4. Activity assays were performed in Greiner 384-well small volume plates. All steps were conducted at ambient temperature.
Human pancreatic trypsin (1.5 nM final concentration) (Athens Research & Technology, Inc) was added to the dilutions then pre-incubated with the test UTI-Fc for 15 minutes. Next, the reaction was initiated with 100 μM (final) of substrate N[…]-Benzoyl-L-arginine-7-amido-4-methylcoumarin hydrochloride SIGMA B7260-25 MG. The reaction mixture total volume was 20 µl. Trypsin activity was determined via fluorescence. For example, the fluorescence intensity was determined in kinetic mode over a window of 30 to 60 minutes on a BMG PHERAstar FS or PHERAstar plus using an excitation wavelength of 370 nm and an emission wavelength of 470 nm. Trypsin activity was linearly proportional to the change in fluorescence observed (final−initial). […]
Where: Fi was the observed fluorescence at a given concentration of test UTI-Fc.
Fp was the observed fluorescence of a positive control i.e., the average value of 2 to 6 assays in the absence of Trypsin.
Fn was the observed fluorescence of a negative control i.e., the average value of 2 to 6 assays of Trypsin in the presence of vehicle alone. […]

[5] = 1 mg/ml, Tris pH7.4, 25° C. to 110° C. at 200° C. per hour

Sequence of plasmin (P00747 581-810 limits assumed, species assumed): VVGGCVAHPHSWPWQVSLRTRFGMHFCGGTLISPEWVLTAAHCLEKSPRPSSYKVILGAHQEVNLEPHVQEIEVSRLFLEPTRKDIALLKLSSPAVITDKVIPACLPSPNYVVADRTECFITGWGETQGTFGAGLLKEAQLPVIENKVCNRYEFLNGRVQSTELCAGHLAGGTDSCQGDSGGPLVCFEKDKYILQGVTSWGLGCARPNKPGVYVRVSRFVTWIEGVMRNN
Sequence of plasmin (P00747 97-580 partner limits assumed, species assumed): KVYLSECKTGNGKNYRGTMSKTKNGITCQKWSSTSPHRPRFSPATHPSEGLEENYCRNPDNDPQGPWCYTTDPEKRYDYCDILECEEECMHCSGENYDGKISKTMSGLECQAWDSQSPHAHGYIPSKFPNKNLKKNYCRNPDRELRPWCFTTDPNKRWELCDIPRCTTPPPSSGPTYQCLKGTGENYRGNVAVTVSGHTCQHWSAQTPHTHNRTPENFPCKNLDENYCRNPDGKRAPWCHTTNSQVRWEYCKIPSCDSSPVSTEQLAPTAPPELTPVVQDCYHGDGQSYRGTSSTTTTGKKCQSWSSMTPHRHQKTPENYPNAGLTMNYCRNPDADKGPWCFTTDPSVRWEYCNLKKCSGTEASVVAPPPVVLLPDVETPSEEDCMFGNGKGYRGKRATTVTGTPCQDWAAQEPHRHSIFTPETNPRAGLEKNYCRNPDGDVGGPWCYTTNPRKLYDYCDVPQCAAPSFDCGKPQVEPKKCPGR
Sequence of Factor Xa (P00742 235-488 limits assumed): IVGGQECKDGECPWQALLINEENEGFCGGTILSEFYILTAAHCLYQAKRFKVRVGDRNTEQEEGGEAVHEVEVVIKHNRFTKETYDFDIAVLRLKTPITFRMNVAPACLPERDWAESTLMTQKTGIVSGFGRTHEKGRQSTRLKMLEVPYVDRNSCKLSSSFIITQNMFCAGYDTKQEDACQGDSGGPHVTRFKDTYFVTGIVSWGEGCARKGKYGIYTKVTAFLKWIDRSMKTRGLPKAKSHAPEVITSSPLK
Sequence of Factor Xa (P00742 41-179 partner limits assumed): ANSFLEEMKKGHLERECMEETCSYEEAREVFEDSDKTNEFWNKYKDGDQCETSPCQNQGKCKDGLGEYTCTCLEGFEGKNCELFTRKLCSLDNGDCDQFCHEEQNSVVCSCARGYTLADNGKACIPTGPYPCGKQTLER
Sequence of plasma kallikrien (P03952 20-638): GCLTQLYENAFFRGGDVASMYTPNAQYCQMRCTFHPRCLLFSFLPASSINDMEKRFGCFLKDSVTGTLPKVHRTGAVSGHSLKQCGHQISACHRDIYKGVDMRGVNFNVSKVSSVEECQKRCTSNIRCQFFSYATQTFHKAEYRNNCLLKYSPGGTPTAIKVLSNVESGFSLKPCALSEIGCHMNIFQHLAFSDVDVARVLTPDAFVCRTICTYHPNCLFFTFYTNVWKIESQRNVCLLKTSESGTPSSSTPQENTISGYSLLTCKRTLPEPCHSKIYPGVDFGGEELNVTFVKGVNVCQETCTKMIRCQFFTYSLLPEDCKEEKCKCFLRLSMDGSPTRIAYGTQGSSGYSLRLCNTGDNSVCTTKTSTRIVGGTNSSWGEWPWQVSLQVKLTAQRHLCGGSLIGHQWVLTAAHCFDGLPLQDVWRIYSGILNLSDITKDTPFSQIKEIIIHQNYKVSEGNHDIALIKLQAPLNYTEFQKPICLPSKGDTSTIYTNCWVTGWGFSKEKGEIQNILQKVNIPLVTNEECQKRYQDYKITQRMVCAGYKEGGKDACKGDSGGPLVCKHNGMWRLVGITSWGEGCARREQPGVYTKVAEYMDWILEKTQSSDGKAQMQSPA
Sequence of cathepsin C (P53634 25-463, species assumed): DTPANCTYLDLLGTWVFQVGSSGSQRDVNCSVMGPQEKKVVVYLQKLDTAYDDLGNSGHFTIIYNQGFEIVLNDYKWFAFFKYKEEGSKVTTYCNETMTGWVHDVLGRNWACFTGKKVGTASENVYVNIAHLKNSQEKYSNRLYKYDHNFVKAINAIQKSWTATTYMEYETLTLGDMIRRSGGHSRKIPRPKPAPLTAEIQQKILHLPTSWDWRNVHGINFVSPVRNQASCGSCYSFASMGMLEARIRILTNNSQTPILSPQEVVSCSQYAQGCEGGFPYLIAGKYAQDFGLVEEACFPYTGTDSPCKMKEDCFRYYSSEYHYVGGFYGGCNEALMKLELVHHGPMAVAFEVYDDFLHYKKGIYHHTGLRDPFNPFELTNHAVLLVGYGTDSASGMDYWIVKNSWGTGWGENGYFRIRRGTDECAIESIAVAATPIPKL

Molecule: UTI-Fc1: UTI-Fc fusion protein, human UTI domain linked to wild type IgG1 Fc, SEQ ID NO: 1
thermal stability compared to the UTI fusion proteins of CN 103044554A [1]: greater thermal stability | DSC Tm1 [1, 5]: 70.86 °C | DSC Tm2 [1, 5]: 85.79 °C | inhibition of caspase-1 (caspase-1): weak inhibition | SEC percentage peak area Peak1 ([2]; 0 weeks): 35.7% | SEC percentage peak area Peak2 ([2]; 0 weeks): 64.3% | % Δ (mg/ml), percentage change in concentration by A280 ([2]; 2 weeks at 2-8° C.): 9.2% | SEC percentage peak area Peak1 ([2]; 2 weeks at 2-8° C.): 36.2% | SEC percentage peak area Peak2 ([2]; 2 weeks at 2-8° C.): 63.8% | % Δ (mg/ml), percentage change in concentration by A280 ([2]; 2 weeks at 40° C.): 0.2% | SEC percentage peak area Peak1 ([2]; 2 weeks at 40° C.): 37.1% | SEC percentage peak area Peak2 ([2]; 2 weeks at 40° C.): 62.9% | % Δ (mg/ml), percentage change in concentration by A280 ([2]; 4 weeks at 2-8° C.): 1.2% | SEC percentage peak area Peak1 ([2]; 4 weeks at 2-8° C.): 36.1% | SEC percentage peak area Peak2 ([2]; 4 weeks at 2-8° C.): 63.9% | % Δ (mg/ml), percentage change in concentration by A280 ([2]; 4 weeks at 40° C.): 11.9% | SEC percentage peak area Peak1 ([2]; 4 weeks at 40° C.): 36.8% | SEC percentage peak area Peak2 ([2]; 4 weeks at 40° C.): 63.2% | inhibition of cathepsin C (cathepsin C): weak inhibition | inhibition of papain (papain): weak inhibition | serum C5a (C5a; 20 mg/kg iv): significantly reduced | serum C5a (C5a; 50 mg/kg iv): significantly reduced | serum C5a (C5a; 100 mg/kg iv): significantly reduced | inhibition of plasmin (plasmin): moderately | inhibition of chymotrypsin (chymotrypsin): moderately

IC50 (Human pancreatic trypsin): ~3 nM
B1: UTI: Urinary Trypsin Inhibitor, protease inhibitor of about 40 kD present in human urine and blood (protein)
chain: AVLPQEEEGSGGGQLVTEVTKKEDSCQLGYSAGPCMGMTSRYFYNGTSMACETFQYGGCMGNGNNFVTEKECLQTCRTVAACNLPIVRGPCRAFIQLWAFDAVKGKCVLFPYGGCQGNGNKFYSEKECREYCGVPGDGDEELLRFSN
half-life [3]: 4 to 30 min | inhibition of Factor Xa (Factor Xa): does not show inhibition | inhibition of plasma kallikrien (plasma kallikrien): does not show inhibition | IC50 of trypsin-induced IL-6 production [4]: 0.40 µg/mL
